Reference: US20050037339A1
Read-outs that look alike come from different tables or passages of the source.

Tests used:
[1] = biological target: ErbB2 on cells (SKBR3 high, SK-OV-3 moderate, MCF7 low expression) (human) (UniProt P04626); assay: cell-based or functional assay
[2] = biological target: ErbB2 on cells (SKBR3 high, SK-OV-3 moderate, MCF7 low expression) (human) (UniProt P04626); assay: FACS on SKBR3 cells, anti-M13 and streptavidin-PE detection
[3] = biological target: ErbB2 on cells (SKBR3 high, SK-OV-3 moderate, MCF7 low expression) (human) (UniProt P04626); assay: 3.0×10^11 cfu on SKBR3 cells 2 h at 37 °C, stripping buffer wash titered on E. coli TG1
[4] = biological target: recombinant ErbB2 extracellular domain (UniProt P04626); assay: SPR (BIAcore)
[5] = biological target: ErbB2 on cells (SKBR3 high, SK-OV-3 moderate, MCF7 low expression) (human) (UniProt P04626); assay: 5.0×10^11 phage on ErbB2 expressing SKBR3 cells at 37 °C, low pH glycine eluate titered on E. coli TG1
[6] = biological target: ErbB2 on cells (SKBR3 high, SK-OV-3 moderate, MCF7 low expression) (human) (UniProt P04626)
[7] = biological target: ErbB2 on cells (SKBR3 high, SK-OV-3 moderate, MCF7 low expression) (human) (UniProt P04626); remark: listed apart in the source

Chain of C6ML3-9 scFv phagemid (P69168 19-424): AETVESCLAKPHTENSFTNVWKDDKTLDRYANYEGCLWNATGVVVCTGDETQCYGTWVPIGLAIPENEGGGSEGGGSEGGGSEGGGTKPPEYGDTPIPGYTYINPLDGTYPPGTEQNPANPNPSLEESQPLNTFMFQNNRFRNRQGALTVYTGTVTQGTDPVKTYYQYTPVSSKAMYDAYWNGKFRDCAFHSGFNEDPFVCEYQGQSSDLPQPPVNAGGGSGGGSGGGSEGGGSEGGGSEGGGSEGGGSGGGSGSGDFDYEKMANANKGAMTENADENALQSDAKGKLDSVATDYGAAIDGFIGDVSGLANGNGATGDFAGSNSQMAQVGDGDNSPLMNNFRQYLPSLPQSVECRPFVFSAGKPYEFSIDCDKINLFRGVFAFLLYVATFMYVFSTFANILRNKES
Chain of anti-botulinum scFv phagemid (clone 3D12) (P69168 19-424): as above
Chain of C6.5 diabody phagemid (P69168 19-424): as above
Chain of F5-phagemid (monovalent) (P69168 19-424): as above
Chain of C6.5 scFv phagemid (P69168 19-424): as above
Chain of fd-F5 phage (multivalent) (P03661 19-424): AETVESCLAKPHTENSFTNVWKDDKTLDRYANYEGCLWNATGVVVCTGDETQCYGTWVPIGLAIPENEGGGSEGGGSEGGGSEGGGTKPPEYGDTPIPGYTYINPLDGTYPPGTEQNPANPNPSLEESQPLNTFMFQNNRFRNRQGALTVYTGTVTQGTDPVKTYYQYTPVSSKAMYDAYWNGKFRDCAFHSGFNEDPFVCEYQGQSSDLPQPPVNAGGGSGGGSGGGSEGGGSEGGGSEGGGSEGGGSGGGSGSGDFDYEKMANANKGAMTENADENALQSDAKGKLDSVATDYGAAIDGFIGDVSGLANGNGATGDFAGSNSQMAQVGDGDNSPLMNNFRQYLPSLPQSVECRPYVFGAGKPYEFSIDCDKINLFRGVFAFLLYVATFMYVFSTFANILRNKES
Chain of C6.5 scFv phage (fd) (P03661 19-424): as above

F5-phagemid (monovalent) (from UniProt P69168 19-424) (scFv)
% of GFP positive cells (SKBR3, 48 hours; 0.78 µg reporter plasmid DNA) [1]: 0.64%
% of GFP positive cells (SKBR3, 48 hours; 3.1 µg reporter plasmid DNA) [1]: 1.44%
% of GFP positive cells (SKBR3, 48 hours; 15 µg reporter plasmid DNA) [1]: 3.84%
GFP expressing SKBR3 cells after 48 hrs (FACS) [1]: 1.37%
GFP expressing SKBR3 cells in a co-culture of SKBR3 and MCF7 cells (FACS) [1]: 1.91%
GFP positive SKBR3 cells at the minimal phage concentration [1]: 0.12%
maximum percentage of GFP positive SKBR3 cells in the time course [1]: 4.5%
lowest phage concentration at which binding could be detected [2]: 1e+10 cfu/ml

fd-F5 phage (multivalent) (from UniProt P03661 19-424) (scFv)
% of GFP positive cells (SKBR3, 48 hours; 1.25 ng reporter plasmid DNA) [1]: 0.57%
% of GFP positive cells (SKBR3, 48 hours; 2.25 ng reporter plasmid DNA) [1]: 0.87%
% of GFP positive cells (SKBR3, 48 hours; 5 ng reporter plasmid DNA) [1]: 1.69%
lowest phage concentration at which binding could be detected [2]: 1e+08 cfu/ml

C6.5 scFv phage (fd) (from UniProt P03661 19-424)
Intracellular Phage Titer [1]: 2.2e+08 cfu
input titer below which phage could not be recovered from within SKBR3 cells (input phage titer) [1]: 30000
Cell Surface Phage Titer, 1st Wash [3]: 2.3e+08 cfu
Cell Surface Phage Titer, 2nd Wash [3]: 6.2e+07 cfu
Cell Surface Phage Titer, 3rd Wash [3]: 5.6e+06 cfu

C6ML3-9 scFv phagemid (from UniProt P69168 19-424)
Intracellular Phage Titer [1]: 2.7e+07 cfu
input titer below which phagemid could not be recovered from within SKBR3 cells (input phage titer) [1]: 3e+06
Cell Surface Phage Titer, 1st Wash [3]: 2.5e+08 cfu
Cell Surface Phage Titer, 2nd Wash [3]: 1.4e+07 cfu
Cell Surface Phage Titer, 3rd Wash [3]: 3.2e+06 cfu

native anti-ErbB2 F5 scFv
Kd [4]: 160 nM

C6.5 scFv phagemid (from UniProt P69168 19-424)
Intracellular Phage Titer [1]: 5.2e+06 cfu
enrichment of C6.5 scFv phagemid over wild type fd phage in the cell lysate, with trypsinization [1]: 209 fold
enrichment of C6.5 scFv phagemid over wild type fd phage in the cell lysate, without trypsinization [1]: 6.1 fold
input titer below which phagemid could not be recovered from within SKBR3 cells (input phage titer) [1]: 300000
Cell Surface Phage Titer, 1st Wash [3]: 6e+07 cfu
Cell Surface Phage Titer, 2nd Wash [3]: 9.6e+06 cfu
Cell Surface Phage Titer, 3rd Wash [3]: 760000 cfu

C6.5 phage (Example 2) (scFv)
Lysed cell fraction (titer of internalized phage) [1]: 6.8e+07 phage titer
titer of cell surface bound phage, 1st glycine wash [5]: 1.2e+07 phage titer
titer of cell surface bound phage, 2nd glycine wash [5]: 5.2e+06 phage titer

C6.5 diabody phagemid (from UniProt P69168 19-424)
Intracellular Phage Titer [1]: 4.5e+07 cfu
Lysed cell fraction (titer of internalized phage) [1]: 1.7e+07 phage titer
cells with internalized phage (confocal microscopy, SKBR3 cells) [1]: 20%
input titer below which phage could not be recovered from within SKBR3 cells (input phage titer) [1]: 30000
Cell Surface Phage Titer, 1st Wash [3]: 1.8e+08 cfu
Cell Surface Phage Titer, 2nd Wash [3]: 1.2e+07 cfu
Cell Surface Phage Titer, 3rd Wash [3]: 1.3e+06 cfu
titer of cell surface bound phage, 1st glycine wash [5]: 1.8e+07 phage titer
titer of cell surface bound phage, 2nd glycine wash [5]: 2.8e+06 phage titer

C6.5cys scFv conjugated to liposomes
Total uptake of scFv-conjugated liposomes by SKBR3 cells [1]: 3.4
share of the liposome uptake that was internalized (SKBR3 cells) [1]: 70%

anti-botulinum scFv phagemid (clone 3D12) (from UniProt P69168 19-424)
titer of cell surface bound phage, 1st glycine wash [6]: 600000 phage titer
titer of cell surface bound phage, 2nd glycine wash [6]: 100000 phage titer
Cell Surface Phage Titer, 1st Wash [7]: 2.8e+07 cfu
Cell Surface Phage Titer, 2nd Wash [7]: 3.6e+06 cfu
Cell Surface Phage Titer, 3rd Wash [7]: 280000 cfu
Intracellular Phage Titer [1]: 1.5e+06 cfu
Lysed cell fraction (titer of internalized phage) [1]: 600000 phage titer
